According to the supplement of paper PMC11136658:

System: peptide library, one residue held at a place counted from the Y acceptor
Experiment: relative phosphorylation of the sub-library (ratio to the mean residue at this position); higher = residue favoured
Procedure, shortened: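 Every value reflects phosphorylation relative to the mean randomized residue. The sum of the 18 randomized residues, or 16 in the Ser/Thr-free library, served to normalize intensities at each position, which were then multiplied by that number. Intensities came from phosphorimaging with ImageQuant of biotinylated Tyr-centred peptides captured on streptavidin membranes after 90 min with purified recombinant kinases and 50 μM ATP plus γ-32P-ATP.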

EPHB2, construct: aa611-893, human, sequence (P29323 611-893, looked up): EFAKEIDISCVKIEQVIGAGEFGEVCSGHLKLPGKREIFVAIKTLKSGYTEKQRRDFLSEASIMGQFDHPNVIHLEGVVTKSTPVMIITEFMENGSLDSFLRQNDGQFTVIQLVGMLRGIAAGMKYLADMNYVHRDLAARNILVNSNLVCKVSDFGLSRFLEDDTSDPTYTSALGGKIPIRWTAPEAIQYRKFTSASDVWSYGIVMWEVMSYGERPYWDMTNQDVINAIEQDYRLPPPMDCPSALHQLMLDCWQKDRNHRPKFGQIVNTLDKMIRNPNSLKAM
EPHB3, construct: aa623-907, human, sequence (P54753 623-907, looked up): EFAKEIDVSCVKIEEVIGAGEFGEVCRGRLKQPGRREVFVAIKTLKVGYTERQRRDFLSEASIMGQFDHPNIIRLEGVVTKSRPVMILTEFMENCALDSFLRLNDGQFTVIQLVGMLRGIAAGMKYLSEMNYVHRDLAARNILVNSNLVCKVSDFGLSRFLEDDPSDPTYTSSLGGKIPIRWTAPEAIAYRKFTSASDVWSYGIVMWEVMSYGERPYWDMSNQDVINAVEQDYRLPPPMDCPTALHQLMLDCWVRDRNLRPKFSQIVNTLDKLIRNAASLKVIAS

EPHB2, construct: aa611-893, human (from UniProt P29323)
relative phosphorylation
Details | at +1 | at +2 | at +3 | at +4 | at +5 | at -1 | at -2 | at -3 | at -4 | at -5
A fixed | 1.72 | 0.968 | 0.884 | 0.898 | 1.16 | 0.485 | 1.16 | 0.764 | 1.06 | 1.02
D fixed | 1.17 | 1.15 | 0.473 | 1.11 | 1.01 | 2.48 | 1.32 | 1.45 | 1.35 | 1.24
E fixed | 2.89 | 1.54 | 0.434 | 1.07 | 1.06 | 1.55 | 1.47 | 1.76 | 1.28 | 0.996
F fixed | 0.59 | 1.27 | 1.36 | 0.922 | 0.937 | 0.938 | 0.635 | 1.33 | 1.11 | 0.972
G fixed | 1.1 | 0.438 | 0.65 | 1.2 | 1.18 | 0.224 | 1.17 | 0.845 | 1.28 | 1.05
H fixed | 0.443 | 0.626 | 1.29 | 1.1 | 0.998 | 0.494 | 0.825 | 0.807 | 0.872 | 0.921
I fixed | 1.23 | 1.39 | 1.72 | 0.817 | 0.889 | 2.02 | 0.77 | 1 | 0.898 | 0.905
K fixed | 0.166 | 0.428 | 0.273 | 0.699 | 0.691 | 0.207 | 0.791 | 0.522 | 0.784 | 0.995
L fixed | 0.752 | 0.958 | 1.31 | 0.864 | 1.06 | 1.85 | 0.769 | 0.927 | 0.963 | 0.946
M fixed | 1.33 | 0.838 | 1.19 | 1.09 | 0.934 | 0.759 | 0.674 | 0.919 | 0.868 | 0.942
N fixed | 0.41 | 0.927 | 0.646 | 0.796 | 0.853 | 2.06 | 1.26 | 1.03 | 0.937 | 1.11
P fixed | 0.171 | 0.732 | 1.27 | 1.16 | 1.46 | 0.343 | 1.33 | 0.945 | 1.09 | 1.19
Q fixed | 1.2 | 0.882 | 0.762 | 0.976 | 0.868 | 0.502 | 1.17 | 0.933 | 1.25 | 1.12
R fixed | 0.22 | 0.618 | 0.433 | 0.771 | 0.756 | 0.245 | 0.749 | 0.603 | 0.802 | 0.96
S fixed | 0.992 | 0.953 | 0.769 | 1.03 | 1.11 | 0.47 | 1.43 | 0.968 | 0.898 | 0.88
T fixed | 0.766 | 1.1 | 0.908 | 0.949 | 1.05 | 1.03 | 0.923 | 0.794 | 0.667 | 0.726
V fixed | 1.77 | 1.78 | 1.92 | 1.02 | 0.934 | 1.48 | 0.878 | 0.928 | 0.851 | 0.957
W fixed | 1.07 | 1.41 | 1.7 | 1.52 | 1.04 | 0.868 | 0.657 | 1.46 | 1.05 | 1.07
pThr fixed | 1.64 | 1.98 | 0.439 | 0.858 | 0.64 | 1.77 | 1.05 | 0.962 | 0.894 | 0.877
pTyr fixed | 1.75 | 4.02 | 0.872 | 1.28 | 1.1 | 2.15 | 1.15 | 1.12 | 1.04 | 1.12

EPHB3, construct: aa623-907, human (from UniProt P54753)
relative phosphorylation
Details | at +1 | at +2 | at +3 | at +4 | at +5 | at -1 | at -2 | at -3 | at -4 | at -5
A fixed | 1.96 | 0.847 | 0.837 | 0.853 | 0.843 | 0.583 | 1.21 | 0.804 | 1.15 | 0.981
D fixed | 1.06 | 0.993 | 0.442 | 1.06 | 1.14 | 2.09 | 1.04 | 1.04 | 1.03 | 0.921
E fixed | 2.6 | 1.33 | 0.413 | 1.16 | 1.15 | 1.38 | 1.29 | 1.19 | 1.39 | 0.842
F fixed | 0.588 | 1.38 | 1.31 | 1.04 | 0.656 | 1.03 | 0.661 | 1.39 | 1.09 | 1.16
G fixed | 1.13 | 0.428 | 0.651 | 1.26 | 1.36 | 0.226 | 1.33 | 1.05 | 1.37 | 1.32
H fixed | 0.573 | 0.91 | 1.57 | 1.19 | 1.12 | 0.638 | 0.9 | 1.05 | 0.899 | 0.933
I fixed | 1.19 | 1.24 | 1.95 | 0.801 | 0.581 | 2.29 | 0.899 | 1.14 | 1.01 | 1.14
K fixed | 0.211 | 0.576 | 0.297 | 0.737 | 1.02 | 0.234 | 0.841 | 0.61 | 0.898 | 0.992
L fixed | 0.732 | 0.974 | 1.39 | 0.821 | 0.613 | 1.87 | 0.83 | 0.912 | 0.959 | 0.98
M fixed | 1.14 | 0.913 | 1.29 | 0.984 | 0.927 | 0.849 | 0.709 | 0.928 | 0.854 | 0.9
N fixed | 0.393 | 1.01 | 0.653 | 0.856 | 1.1 | 2.4 | 1.12 | 1.09 | 0.922 | 1.08
P fixed | 0.157 | 0.739 | 1.26 | 1.54 | 1.46 | 0.415 | 1.32 | 1.12 | 1.06 | 1.06
Q fixed | 1.31 | 0.954 | 0.799 | 1.01 | 1.07 | 0.406 | 1.18 | 0.837 | 1.11 | 0.989
R fixed | 0.278 | 0.768 | 0.468 | 0.855 | 1.32 | 0.239 | 0.896 | 0.722 | 0.84 | 1.03
S fixed | 1 | 0.886 | 0.689 | 0.8 | 1.2 | 0.516 | 1.3 | 1 | 0.82 | 0.869
T fixed | 0.903 | 0.989 | 0.796 | 0.865 | 1.16 | 1.03 | 0.96 | 0.942 | 0.762 | 0.761
V fixed | 1.64 | 1.29 | 1.7 | 0.814 | 0.552 | 1.1 | 0.848 | 0.874 | 0.777 | 0.795
W fixed | 1.12 | 1.77 | 1.49 | 1.36 | 0.723 | 0.697 | 0.672 | 1.31 | 1.05 | 1.26
pThr fixed | 1.34 | 1.82 | 0.32 | 0.825 | 0.763 | 1.63 | 0.847 | 0.897 | 0.873 | 0.831
pTyr fixed | 1.5 | 3.93 | 0.629 | 0.894 | 0.978 | 1.79 | 1.05 | 1.06 | 1.06 | 0.83
